The source of these data is patent publication US20250295796A1, “CELL PENETRATING POLYPEPTIDES (CPPS) AND THEIR USE IN HUMAN THERAPY” (RDP PHARMA AG, priority 2021, published 2025).

As usually defined, the IC50 is the concentration needed to halve the response being measured.

One assay deals with primary hepatocytes. As to the kind of experiment: SRB assay for 96 hours, primary hepatocytes. Type of assay: cell-based. The following applies: non-tumor cells primary hepatocytes, SRB 96 hours. As to the method: Cells were harvested from exponential phase cultures, and depending on the cell line 10.000 to 30.000 cells were plated in 96-well flat-bottom microtiter plates. […] Compounds were applied at 9 concentrations eight wells/concentration). At least three independent experiments were performed. For SRB staining, cells were fixed with SRB01 for 1h at 4° C. (final concentration of TCA=10%) washed with a plate washer (Hydroflex, Tecan©) for five times with H2O; and stained with 100 μl of SRB02 at room temperature for 10 min following 4 washes in SRB03 and finally 100 μl of developer solution SRB04 for 5 minutes with shaking. Optical density was assessed using a plate-reader (Sunrise, Tecan©) at 540 nm. Concentrations required for 50% inhibition of cell growth (IC50) were calculated by non-linear regression (log[conc. of inhibitor] versus response (% T/C)) using the analysis software GraphPad Prism®, Prism 5 for windows, version 5.01 (GraphPad Software Inc., CA). (SRB Buffers FIG. 25).
(The SRB assay estimates cell density from bound dye.)

A further assay relates to PAXF 1657L. As to the kind of experiment: Propidium iodide monolayer assay, PAXF 1657L. It is filed as cell-based, human. The following applies: four days. On the procedure:
(§1) Monolayer Assay Propidium Iodid (PI). Cells were harvested from exponential phase cultures, counted and depending on the cell line 3.000 to 20.000 cells were plated in 96-well flat-bottom microtiter plates After a 24 h recovery period to allow cells to resume exponential growth, 10 μl of culture medium (four control wells/plate) or culture medium with the test compound were added by a liquid handling robotic system and treatment continued for four days. Compounds were applied in half-log increments at 10 concentrations in duplicate. Three independent experiments were performed. Cells were then washed with 200 μl PBS to remove dead cells followed by addition of 200 μl of a solution containing 7 μg/ml propidium iodide (PI) and 0.1% (v/v) Triton X-100. After an incubation period of 1-2 h at room temperature, fluorescence (FU) was measured using the Cytofluor 4000 microplate reader (excitation λ=530 nm, emission λ=620 nm) to quantify the amount of attached viable cells. […]
(§2) CROMOC36—in vitro activity Human pancreatic carcinoma cell lines. […] Antitumor activity was assessed after four days of CROMOC36 treatment using a propidium iodide based monolayer proliferation assay. […]

Assay [1] concerns DNA double strand breaks (Phospho-H2AX, Phospho-H3). As to the kind of experiment: Immunohistochemistry of liver specimens after single IV treatment. The conditions noted are these: samples after 13-15 days. Type of assay: in vivo, Male Sprague Dawley Rats. The text has this: FIG. 8: Immunohistochemistry (IHC) analysis paraffin embedded liver specimens of Male Sprague Dawley Rats after single IV treatment with CROMOC36. Samples were collected after 13-15 days and IHC was used to assess the Histone surrogate-markers for DNA double strand breaks Phospho-H2AX and Phospho-H3 for analyzing the persistence of DNA double stand breaks (DSBs) at very high CROMOC concentrations in tumors in comparison to the KI67marker.
As a proof of the nuclease activity in vivo an Immunohistochemistry (IHC) analysis of paraffin embedded liver specimens of Male Sprague Dawley Rats after single IV treatment with CROMOC36.

The test system of the next assay is PAXF 546L. The experiment in a line: Propidium iodide monolayer assay, PAXF 546L. The conditions noted are these: four days. It is filed as cell-based, human. As to the method: as §1, §2
A further assay relates to HUPT3. The experiment in a line: Propidium iodide monolayer assay, HUPT3. The conditions noted are these: HUPT3, four days. It is filed as cell-based, human. On the procedure:
as §1, §2

The next assay deals with PATU8902. The experiment in a line: Propidium iodide monolayer assay, PATU8902. It is filed as cell-based, human. The following applies: PATU8902, four days. On the procedure: as §1, §2
A further assay concerns PANC1. As to the kind of experiment: Propidium iodide monolayer assay, PANC1. Type of assay: cell-based, human. The following applies: PANC1, four days. As to the method: as §1, §2
Assay [2] deals with human colon carcinoma with null p53 (HCT116 p53−/−) xenograft. The experiment in a line: HCT116 p53-/- xenograft, CROMOC36 versus nuclease impaired CROMOC60. Type of assay: in vivo, mouse. The following applies: s.c. 4 mg/kg on days 0, 1, 2, 3, 6, 7, 8, 9, 10, 20, 22, 24. As to the method:
FIG. 7: HCT116 p53−/− human colon carcinoma xenograft. Treatment on advanced tumors (volume >50 mm^3). Dose: CROMOC36 4 mg/kg; CROMOC60 4 mg/kg. Treatment: s.c. administration on day 0, 1, 2, 3, 6, 7, 8, 9, 10, 20, 22, 24.
A study was conducted to test the antitumor efficacy of CROMOC36 on an advanced human colon carcinoma with null p53 (HCT116 p53−/−) xenograft model and compare it to a vehicle or a nuclease impaired version CROMOC60 treatment group. CROMOC60 is no more catalytically active as a nuclease but is able to be transported to the nucleus of a cell. This study was also designed to proof that the active principle of the tumor growth inhibiting activity of CROMOC is the nuclease activity in vivo. CROMOC36 and CROMOC60 were both administered subcutaneously (s.c.) at 4 mg/kg dose on the days 0, 1, 2, 3, 6, 7, 8, 9, 10, 20, 22, 24. […] This also proofs that CROMOC36 can serve as a valid DNA DSB reagent.

In the next assay the test system is PATU8988T. As to the kind of experiment: Propidium iodide monolayer assay, PATU8988T. Type of assay: cell-based, human. The conditions noted are these: four days. On the procedure: as §1, §2

B1: CROMOC36: single chain PvuII endonuclease fused at its C-terminus to DDM36, PEGylated final product used in the Examples (protein)
chain: MSHPDLNKLLELWPHIQEYQDLALKHGINDIFQDNGGKLLQVLLITGLTVLPGREGNDAVDNAGQEYELKSINIDLTKGFSTHHHMNPVIIAKYRQVPWIFAIYRGIAIEAIYRLEPKDLEFYYDKWERKWYSDGHKDINNPKIPVKYVMEHGTKIYGSGGSGGSSHPDLNKLLELWPHIQEYQDLALKHGINDIFQDNGGKLLQVLLITGLTVLPGREGNDAVDNAGQEYELKSINIDLTKGFSTHHHMNPVIIAKYRQVPWIFAIYRGIAIEAIYRLEPKDLEFYYDKWERKWYSDGHKDINNPKIPVKYVMEHGTKIYGNSGSGKKKKKGKGSGLGSGKKKDPLGSGLGSGKKKKKGKGSGLGSGKKKDPLGST
modifications: PEGylated; peptide, CROMOC36
As to B1, the IC50 with primary hepatocytes was more than 10000 nM; with PAXF 1657L, 4.73 nM; in the assay with PAXF 546L, 6.49 nM; in the assay on HUPT3, approximately 10 nM; in the assay with PATU8902 it was 2.33 nM; in the assay with PANC1, approximately 10 nM. The molecule also displayed an IC50 in the assay with PATU8988T of 2.79 nM. For the same molecule, the “DNA double strand breaks in liver (Phospho-H2AX, Phospho-H3 IHC)” value in [1] is given as “DSBs are induced”. Also, in assay [2], the “progression of HCT116 p53−/− human colon carcinoma as compared to vehicle control” value was “significantly inhibited”.
